Measured values reported in patent publication US20230091653.

Columns and labels:
[1] = tested on: h00-7 (non-binding control antibody h00 conjugated with compound 7, mp-Leu-Ala-Glu-PABC-MMAE)
[2] = tested on: h00-5 (non-binding control antibody h00 conjugated with compound 5, mp-D-Leu-Ala-Glu-PABC-MMAE)
[3] = tested on: h00-37 (non-binding control antibody h00 conjugated with compound 37, mp-val-cit-PABC-MMAE)

neutrophil elastase
percentage of drug cleaved from the heavy chain (3 h at 37 C, QToF mass spectrometry) [1]: the h00-5 conjugate ... has its heavy chain cleaved by neutrophil elastase to a significantly lower extent than h00-7
percentage of drug cleaved from the heavy chain (3 h at 37 C, QToF mass spectrometry) [2]: no proteolosis of h00-5 by neutrophil elastase was observed
percentage of drug cleaved from the heavy chain (3 h at 37 C, QToF mass spectrometry) [3]: percentage of drug cleaved from the heavy chain of non-targeted ADC 5 in vitro by neutrophil elastase is lower than that found for non-targeted ADC 37

Cathepsin B
percentage of drug cleaved from the heavy chain (3 h at 37 C, pH 4.5, QToF mass spectrometry) [1]: percentage of drug cleaved from the heavy chain of non-targeted ADCs 5 and 7 in vitro by Cathepsin B is similar to that found for non-targeted ADC 37
percentage of drug cleaved from the heavy chain (3 h at 37 C, pH 4.5, QToF mass spectrometry) [2]: percentage of drug cleaved from the heavy chain of non-targeted ADCs 5 and 7 in vitro by Cathepsin B is similar to that found for non-targeted ADC 37
percentage of drug cleaved from the heavy chain (3 h at 37 C, pH 4.5, QToF mass spectrometry) [3]: percentage of drug cleaved from the heavy chain of non-targeted ADCs 5 and 7 in vitro by Cathepsin B is similar to that found for non-targeted ADC 37
